Laboratory results from patent US20160031996A1 (CSL, published 2016).
Where a chain is given by its changes, count along the chain named.

Legend:
[1] = target: T1, chimera of human IL-3Rα residues 101-377 with GM-CSFRα domains (human, UniProt P15509 23-114); experiment: flow cytometry, transfected 293F cells
T1 construct: on 293F cells
T1 sequence: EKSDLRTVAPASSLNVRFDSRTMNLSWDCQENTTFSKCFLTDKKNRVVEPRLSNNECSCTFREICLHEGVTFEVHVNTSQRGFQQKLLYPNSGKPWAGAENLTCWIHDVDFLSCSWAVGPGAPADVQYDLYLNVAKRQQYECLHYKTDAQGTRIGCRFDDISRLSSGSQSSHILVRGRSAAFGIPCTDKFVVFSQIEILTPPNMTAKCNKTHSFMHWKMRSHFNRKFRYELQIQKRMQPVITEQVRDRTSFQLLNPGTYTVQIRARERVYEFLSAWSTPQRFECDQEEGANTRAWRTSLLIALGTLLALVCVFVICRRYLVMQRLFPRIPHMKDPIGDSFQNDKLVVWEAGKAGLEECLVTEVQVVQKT
From the text: Expression constructs were generated of frill length human IL-3Rα or of proteins comprising hIL-3Rα domains with various GM-CSFRα domains as depicted in FIG. 1A. […] Results are tabulated in Table 1 with positive staining (+) and negative staining (−) indicated.

[2] = target: T2, human IL-3Rα E51Q/P88T double mutant, full length (human, UniProt P26951 19-378); experiment: Western blot after SDS-PAGE of whole cell extracts
T2 chain: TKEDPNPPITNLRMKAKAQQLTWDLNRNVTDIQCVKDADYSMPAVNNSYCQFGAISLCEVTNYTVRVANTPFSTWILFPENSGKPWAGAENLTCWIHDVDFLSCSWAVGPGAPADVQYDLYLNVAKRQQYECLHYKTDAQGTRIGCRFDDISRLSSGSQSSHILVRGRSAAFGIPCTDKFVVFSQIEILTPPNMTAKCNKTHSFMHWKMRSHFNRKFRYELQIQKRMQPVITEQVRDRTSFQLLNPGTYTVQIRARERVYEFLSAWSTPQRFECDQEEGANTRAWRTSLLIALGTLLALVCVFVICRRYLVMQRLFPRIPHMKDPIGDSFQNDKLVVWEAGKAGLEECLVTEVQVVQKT

[3] = target: T3, human IL-3Rα E51A, full length (human, UniProt P26951 19-378); experiment: Western blot, whole cell extracts of 293F cells
T3 construct: expressed in 293F cells; Western blot of whole cell extracts; also called E51, cell surface alanine
T3 sequence: T2 chain with Q33A, T70P

[4] = target: T4, human IL-3Rα Y58A, full length (human, UniProt P26951 19-378); experiment: Western blot, whole cell extracts of 293F cells
T4 construct: expressed in 293F cells; Western blot of whole cell extracts; also called Y58, cell surface alanine
T4 sequence: T2 chain with Q33E, Y40A, T70P

[5] = target: T5, human IL-3Rα P61A, full length (human, UniProt P26951 19-378); experiment: Western blot, whole cell extracts of 293F cells
T5 construct: expressed in 293F cells; Western blot of whole cell extracts; also called P61, cell surface alanine
T5 sequence: T2 chain with Q33E, P43A, T70P

[6] = target: T6, human IL-3Rα R84A, full length (human, UniProt P26951 19-378); experiment: Western blot, whole cell extracts of 293F cells
T6 construct: expressed in 293F cells; Western blot of whole cell extracts; also called R84, cell surface alanine
T6 sequence: T2 chain with Q33E, R66A, T70P

Measured: binding result

B1: monoclonal antibody 7G3 (antibody, V domains shown)
VH: EVQLQQSGPELVKPGASVKMSCKASGYTFTDYYMKWVKQSHGKSLEWIGDIIPSNGATFYNQKFKGKATLTVDRSSSTAYMHLNSLTSEDSAVYYCTRSHLLRASWFAYWGQGTLVTVSA
VL: DFVMTQSPSSLTVTAGEKVTMSCKSSQSLLNSGNQKNYLTWYLQKPGQPPKLLIYWASTRESGVPDRFTGSGSGTDFTLTISSVQAEDLAVYYCQNDYSYPYTFGGGTKLEIKR
notes: mouse monoclonal antibody (hybridoma ATCC HB-12009)
no binding: [1] | [2] | [3] | [4] | [5] | [6]
